Positions count from the first letter of the chain named. Names and notes keep the numbering of the source. Read-outs that look alike come from different tables or passages of the source. Marks after values point to notes of the source that are not given here.
B1: ttGBP1: glucose-binding protein from Thermus thermophilus, SEQ ID NO: 9 (protein)
chain: MKLEIFSWWAGDEGPALEALIRLYKQKYPGVEVINATVTGGAGVNARAVLKTRMLGGDPPDTFQVHAGMELIGTWVVANRMEDLSALFRQEGWLQAFPKGLIDLISYKGGIWSVPVNIHRSNVMWYLPAKLKGWGVNPPRTWDKFLATAQTLKQKGLEAPLALGENWTQQHLWESVALAVLGPDDWNNLWNGKLKFTDPKAVRAWEVFGRVLDAANKDAAGLSWQQAVDRVVQGKAAFNIMGDWAAGYMTTTLKLKPGTDFAWAPSPGTQGVFMMLSDSFGLPKGAKNRQNAINWLRLVGSKEGQDTSNPLKGSIAARLDSDPSKYNAYGQSAMRDWRSNRIVGSLVHGAVAPESFMSQFGTVMEIFLQTRNPQAAANAAQAIADQVGLGRLGQHHHHHH
modifications: ttGBP1 (with signal peptide replaced with M and a HHHHHH at C-terminus)
B2: tnGBP4: glucose-binding protein from Thermotoga neapolitana, SEQ ID NO: 12 (protein)
chain: MLEIFSWWTAGGEAEALEALIKVFNKYYPDVEVINATVAGGAGTNAKAVLKTRILGGNPPDSFQVHAGMELIDTYVIPGYMTPITNLLEQWGVMDKFPKGILEMASYEGEIYSIPVNVHRGNVVFYNKKIAEEIGMNEPPKTWDEFIMYLQKAKEKGYVGLALGDKNKWTALHLFETILLGVLGPNDYNGLWKGEVSFNDPRIRRAFEIMNKLLDYVNEDHAALAWQDATRLVYEGKALANVMGDWAEGYLKSVGWEPGKDFGWFAVPETQNAFMVVSDTFGLPKNAPHKENAVKWLKVVASVEGQDAFNPIKGSIPARLDADRSKYDIYLQWSMEDFATKALTPSIAHGSAAPEGFVTTLNDIINRFVTTRDIDSALEELLMAAEDEGYLVEGGSHHHHHH
modifications: tnGBP4 (with signal peptide replaced with M and a GGSHHHHHH at C-terminus)
B3: asGBP8: glucose-binding protein from Arthrobacter sp., SEQ ID NO: 16 (protein)
chain: MKLEITSWWTSGSEADALNVLIDGVKAAKPGLSVDNAAVSGGGGANARQALAARLQAGSPPDAWQVHPAGQLKSYVDGGQVADLTDLWTEGDWASQMPKDVAEAQQVDGKYYTVPIGVHRGNVLWTNPAVLSKANVTIDADAGIDGLISSLEQVQASGTTPLALGDKDIFASSQLLESLIMSRAGADNWTKLFTSEYSFDAPEVKQALEDYKTILSFANKDHSAITWDEAAKKMADGEAAVNLMGDWAYGELLNAGKKPGTDFAWVAFPGKEDIFDYVGDGFSIPANNIPHAEAARAWLKTLMDPKIQTEFAAKKGSIPAVTSADISGLSEYQQEAAKSLASGAVVSSLAHAQAAGAEFAQTYADAVSTFNGSGNTDAFIASMTQAQKTQLGGSHHHHHH
modifications: asGBP8 (with signal peptide replaced with M and a GGSHHHHHH at C-terminus)
B4: bhGBP6: glucose-binding protein from Bacillus halodurans, SEQ ID NO: 14 (protein)
chain: MLEIFSWWTGAGEEDGLLALIELFEEKHPEIEVDNAAVAGGAGTNAKAVLTSRMQGNDPPGTFQVHGGAELNDSWVAAGQMDPLNDLFEAEGWADKFPEELIELVSKDGNIYSVPVNIHRGNVLWYNTEIFEEHGLEVPTTFEEFFDVADALQEAGVTPLALGDREPWAATHLFETVLLGTLGADDYNKLWSGEVGMDDPRVEEAAEIFIRMLDYVNEDHSSRNWQDASQLVAQGEAAMNVMGDWAKGYFVNDLNLAVKEDFGWAATPGTEGTFMVITDTFGLPTGVENPEVVKSFLAVLGSQEGQDAFNPLKGSIPARVDADVSKYDEYGQETIEDFKSAELSPSLAHGSAANEGFLTQVNQAINIFVTQKDVDSFVDSLKQYQPGGSHHHHHH
modifications: bhGBP6 (with signal peptide replaced with M and a GGSHHHHHH at C-terminus)
B5: D278S B: tsGBP2.13C.D278S (SEQ ID NO: 51) Badan conjugate (conjugate)
chain: MKLEIFSWWAGDCGPALEALIRLYKQKYPGVEVINATVTGGAGVNAKAVLKTRMLGGDPPDTFQVHAGQELIGTWVVADRMEDLTSLFRQEGWLQAFPKGLIDLLSYKGGIWSVPVNIHRSNVMWYIPAKLKEWGVTPPKTWAEFLATAQTLKRKGLEAPLALGENWTQQHLWESVALATLGADGWNNLWSGKLKFTDPKAVAVWETFGKVLDAANKDAAGLSWQQAVDRVVQGKAAFNIMGDWAAGYMSTTLKLKPGTDFAWTPSPGTSGIFMMLSSSFGLPKGAKNRQNAINWLKLVGSKEGQDTFNPLKGSIAARLDSDPAKYNAYGQSAMKDWKSNRIVGSLVHGAVAPESFMSQFGTVMEIFLQSRNPQAAANAAQAIANQVGLGRGGSHHHHHH
modifications: Badan conjugate; tsGBP2.13C.D278S (13C, 278S double substitution mutant with signal peptide replaced with M and a GGSHHHHHH at C-terminus)
B6: D278L B: tsGBP2.13C.D278L (SEQ ID NO: 52) Badan conjugate (conjugate)
chain: B5 chain with S278L
modifications: Badan conjugate; tsGBP2.13C.D278L (13C, 278L double substitution mutant with signal peptide replaced with M and a GGSHHHHHH at C-terminus)
B7: D278L A: tsGBP2.13C.D278L (SEQ ID NO: 52) Acrylodan conjugate (conjugate)
chain: B5 chain with S278L
modifications: Acrylodan conjugate; tsGBP2.13C.D278L (13C, 278L double substitution mutant with signal peptide replaced with M and a GGSHHHHHH at C-terminus)
B8: K312M B: tsGBP2.13C.K312M (SEQ ID NO: 53) Badan conjugate (conjugate)
chain: B5 chain with S278D, K312M
modifications: Badan conjugate; tsGBP2.13C.K312M (13C, 312M double substitution mutant with signal peptide replaced with M and a GGSHHHHHH at C-terminus)
B9: koGBP5: glucose-binding protein from Kosmotoga olearia, SEQ ID NO: 13 (protein)
chain: MLEIFSWWTGGGEEEGLLALFDVFHKYYPDVEIINATVAGGAGTNAKAVLKTRMLGGNPPDSFQVHGGMELIDTYVVTGMMEPITDLLEEWGIIDKFPEDILKIASYKGEVYSIPVNVHRGNVVFYNKAILEEVGIEKVPSTWPEFIEVLKKIKKAGYIPLALGDKNKWTATHLFEDILLSTLGPYNYNGLWNGRTSFEHQGVKEALEIFKELMNYVNPNHASLTWQDATLLVFEGKAAFNVMGDWAEGYLKTLGWTPGKEFGWMVVPGTKGSFMVVTDTFGLPKNAPHRENAIKWLKIISSVEGQDTFNPIKGSIPARIDADRSLYDDYLIWSMDDFATNALCPSIIHGSAAPEAFVTALNDTINMFITRKDVKKALKEIIYAAEDYLEGGSHHHHHH
modifications: koGBP5 (with signal peptide replaced with M and a GGSHHHHHH at C-terminus)
B10: smGBP7: glucose-binding protein from Staphylothermus marinus, SEQ ID NO: 15 (protein)
chain: MELVIYHWWTAGGEREAINAVFQVFKQKYPNIQIVENPVAGGAGSVMKSVIIGLLAAGTPPDTFQVHAGAELKEYVDAGYLAPIDDIWSKLGLDKVIPSTLQVMAKFNGHYYAVPIDVHRSNVLWYNPKIFNELGIINKFGDPRNWSVDTLLQVARYIKQQRPDIAPIALASRNKWPVTHLFEVLLANAGGPETYVKFFTGKFNYNDPNDPVVQTVKKVLTVMATMAKEGLFNSNHPELTWDQAAALVAEGKAAMFIHGDWVAGYYIANNYKYGKDWAAAPFPKNIFILLSDAFELPKNAPHPEAAKDWLMVVGSKEAQEKFNLIKGSIPARTDVSPKYPDPYRPETAEDFQKSTLIPSAVHGGIAKEAFMTDLHNILTSMLTAVSVGTPVDNAVNTALAQILQSVKTSGLASFWKGYTIDYFITKRGGSHHHHHH
modifications: smGBP7 (with signal peptide replaced with M and a GGSHHHHHH at C-terminus)

Assays:
[1] = Description: Eight homologs that were predicted to be glucose-binding proteins (FIG. 4, Table 3) were selected to probe different degrees of sequence identity to the ttGBP1 seed, and their glucose-binding properties were determined experimentally. These experiments comprised four successive steps: • 1. Synthetic gene construction. The amino acid sequence of the homology leads were backtranslated into DNA sequences. These were optimized for directing heterologous cytoplasmic expression of the protein homologues in E. coli, using either the OrfOpt or OrfMorph programs. These programs predict mRNA sequences that direct high-level protein expression in E. coli. The predicted gene sequences were assembled de novo from synthetic oligonucleotides. • 2. Heterologous protein expression of the homologues in E. coli. Plasmids carrying the synthetic expression constructs (see above) were transformed into KRX competent cells (Promega). Protein production was induced in bacterial cultures of these cultures, as described in the Materials and Methods. • 3. Purification of successfully expressed protein using immobilized metal affinity chromatography. • 4. Verification of glucose binding. Determination of the glucose-binding properties of the purified proteins using a thermal stability shift assay.
Analysis of glucose-binding properties using thermal melts. The thermal stability of purified GBP candidate proteins was determined by measuring the temperature-dependence of the fluorescence signal of an extrinsically added dye, SYPRO, using a Roche LightCycler (Layton and Hellinga, 2010, Biochemistry, 49, 10831-41). The total fluorescence intensity, S, is given by S=βFfF+βUfU 11 where fF and fU are the fractions of protein in the folded and unfolded states, respectively, and βF and βU the fluorescence baselines of these two states. To get the fractions of the two states, we have
[formula] where KU(T) is the temperature-dependent unfolding equilibrium constant, which by the van't Hoff approximation is given by
[formula] Where T is the temperature, Tm, the unfolding reaction transition mid-point temperature, and ΔHU the enthalpy of unfolding.

[2] = Ratiometric fluorescence glucose titration of fluorescent conjugates; format: binding; parameters: key to Shape (fluorescence response to glucose) / Change (fluorescence response to glucose): m, monochromatic; d, dichromatic (i.e. spectral shape change); 0, no change; conditions: tsGBP 13C affinity mutants, Acrylodan or Badan conjugates
Procedure, shortened: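 Single-cysteine glucose-binding protein mutants labelled site-specifically with thiol-reactive environmentally sensitive fluorophores; emission spectra recorded during glucose titration to detect ligand-mediated intensity and spectral-shape changes for ratiometric read-out. Temperature- and ligand-dependent fluorescence landscapes acquired in 1K steps; binding fitted to single-site fractional saturation.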

[3] = ligand-free protein, SYPRO Orange, Roche LightCycler
[4] = read-out: Glucose affinity ^appKd
[5] = read-out: Glucose affinity ^trueKd

Row | Molecule | Thermostability ^apoTm [1, 3] | Change (fluorescence response to glucose) [2] | other results
1 | B1 | >100 °C |  | 
2 | B2 | >100 °C |  | 
3 | B3 | 58 °C |  | 
4 | B4 | 53 °C |  | 
5 | B5 |  | m/d | Kd [2, 4]: 81 mM; Kd [2, 5]: 91 mM
6 | B6 |  | 0 | 
7 | B7 |  | m | 
8 | B8 |  | m | Kd [2, 4]: 26 mM; Kd [2, 5]: 39 mM
9 | B9 | >100 °C |  | 
10 | B10 |  |  | Thermostability ^apoTm ([1]; determined using fluorescent Acrylodan and/or Badan conjugates): 40^f ° C.

Source: patent US11402384B2 (Duke University, priority 2015, dated 2022)
